Source: US20170306033A1 (Amgen, published 2017)

T1: human PAC1 receptor (human, UniProt P41586 21-468)
T1 sequence: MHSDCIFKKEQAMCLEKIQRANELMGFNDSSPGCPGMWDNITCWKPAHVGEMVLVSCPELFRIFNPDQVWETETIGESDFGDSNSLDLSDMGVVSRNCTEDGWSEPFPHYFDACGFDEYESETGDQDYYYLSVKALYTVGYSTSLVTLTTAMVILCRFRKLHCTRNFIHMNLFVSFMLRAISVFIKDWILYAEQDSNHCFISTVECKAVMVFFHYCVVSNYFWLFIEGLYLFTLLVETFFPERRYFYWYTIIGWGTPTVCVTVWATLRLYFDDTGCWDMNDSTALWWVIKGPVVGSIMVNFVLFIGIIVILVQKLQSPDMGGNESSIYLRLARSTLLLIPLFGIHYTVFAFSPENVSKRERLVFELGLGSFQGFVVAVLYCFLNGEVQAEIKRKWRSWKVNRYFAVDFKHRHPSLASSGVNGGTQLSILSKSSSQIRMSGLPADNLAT


Experiments:
[1] = molecular target: human CGRP receptor (human, UniProt Q16602 23-461; O60894 27-148); test: cell-based or functional assay
[2] = molecular target: T1, human PAC1 receptor; test: cell-based or functional assay

human CGRP receptor, sequence (Q16602 23-461 limits assumed, chain 1 of 2): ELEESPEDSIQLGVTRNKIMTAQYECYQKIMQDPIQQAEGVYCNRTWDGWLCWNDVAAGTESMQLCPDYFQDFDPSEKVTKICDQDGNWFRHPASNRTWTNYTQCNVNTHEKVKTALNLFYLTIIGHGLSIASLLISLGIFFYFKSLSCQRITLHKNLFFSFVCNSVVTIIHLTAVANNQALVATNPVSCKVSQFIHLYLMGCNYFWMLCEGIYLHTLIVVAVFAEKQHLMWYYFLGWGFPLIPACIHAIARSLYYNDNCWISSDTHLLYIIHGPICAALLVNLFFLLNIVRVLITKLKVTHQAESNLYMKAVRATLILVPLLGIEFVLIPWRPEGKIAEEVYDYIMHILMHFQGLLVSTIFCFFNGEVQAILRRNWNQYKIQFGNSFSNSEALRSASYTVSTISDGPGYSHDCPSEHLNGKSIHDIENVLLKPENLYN
human CGRP receptor, sequence (O60894 27-148 limits assumed, chain 2 of 2): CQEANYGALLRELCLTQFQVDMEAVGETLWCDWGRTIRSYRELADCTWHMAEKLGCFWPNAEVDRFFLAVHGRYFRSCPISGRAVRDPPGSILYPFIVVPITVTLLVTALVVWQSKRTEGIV

Row | % inhibition of human CGRPR [1] [%] | % inhibition of human PAC1 [2] [%] | Binder
1 | 77 | 5 | iPS:328044 (bispecific antibody, human IgG1, kappa, lambda, N297G) light 1: not shown heavy 1: not shown light 2: not shown heavy 2: EVQLVESGGGLVKPGGSLRLSCAASGFTFSNAWMSWVRQAPGKELEWVGRIKSKTDGGTTDYTAPVKGRFTISRDDSKNTLYLQMNSLKAEDTAVYYCTTDRTGYSISWSSYYYYYGMDVWGQGTTVTVSSASTKGPSVFPLAPSSKSTSGGTAALGCLVKDYFPEPVTVSWNSGALTSGVHTFPAVLQSSGLYSLESVVTVPSSSLGTQTYICNVNHKPSNTKVDKKVEPKSCDKTHTCPPCPAPELLGGPSVFLFPPKPKDTLMISRTPEVTCVVVDVSHEDPEVKFNWYVDGVEVHNAKTKPCEEQYGSTYRCVSVLTVLHQDWLNGKEYKCKVSNKALPAPIEKTISKAKGQPREPQVYTLPPSRKEMTKNQVSLTCLVKGFYPSDIAVEWESNGQPENNYKTTPPVLKSDGSFFLYSKLTVDKSRWQQGNVFSCSVMHEALHNHYTQKSLSLSPGK
2 | 74 | 9 | iPS:328039 (bispecific antibody, human IgG1, kappa, lambda, N297G) light 1: not shown heavy 1: not shown light 2: not shown heavy 2: EVQLVESGGGLVKPGGSLRLSCAASGFTFGNAWMSWVRQAPGKELEWVGRIKSKTDGGTTDYAAPVKGRFTISRDDSKNTLYLQMNSLKTEDTAVYFCTTDRTGYSISWSSYYYYYGMDVWGQGTTVTVSSASTKGPSVFPLAPSSKSTSGGTAALGCLVKDYFPEPVTVSWNSGALTSGVHTFPAVLQSSGLYSLESVVTVPSSSLGTQTYICNVNHKPSNTKVDKKVEPKSCDKTHTCPPCPAPELLGGPSVFLFPPKPKDTLMISRTPEVTCVVVDVSHEDPEVKFNWYVDGVEVHNAKTKPCEEQYGSTYRCVSVLTVLHQDWLNGKEYKCKVSNKALPAPIEKTISKAKGQPREPQVYTLPPSRKEMTKNQVSLTCLVKGFYPSDIAVEWESNGQPENNYKTTPPVLKSDGSFFLYSKLTVDKSRWQQGNVFSCSVMHEALHNHYTQKSLSLSPGK
3 | 73 | 10 | iPS:328035 (bispecific antibody, human IgG1, kappa, N297G) light 1: DIQMTQSPSSLSASVGDRITITCRASQSISRYLNWYQQKPGKAPKLLIYAASSLQSGIPSRFSGSGSGTDFTLTINSLQPEDFATYFCQQSYSPPFTFGQGTKVDIKRTVAAPSVFIFPPSDEQLKSGTASVVCLLNNFYPREAKVQWKVDNALQSGNSQESVTEQDSKDSTYSLESTLTLSKADYEKHKVYACEVTHQGLSSPVTKSFNRGEC heavy 1: not shown light 2: EIVLTQSPGTLSLSPGERATLSCRASQSVSSGYLTWYQQKPGQAPRLLIYGASSRATGIPDRFSGSGSGTDFTLTISRLEPEDFAVYYCQQYGNSLSRFGQGTKLEIKRTVAAPSVFIFPPSDEQLKSGTASVVCLLNNFYPREAKVQWKVDNALQSGNSQESVTEQDSKDSTYSLKSTLTLSKADYEKHKVYACEVTHQGLSSPVTKSFNRGEC heavy 2: not shown
4 | 74 | 85 | iPS:326669 (bispecific antibody, human IgG2, kappa) light 1: EIVLTQSPATLSLSPGERATLSCRASQSVGRSLHWYQQKPGQAPRLLIKYASQSLSGIPARFSGSGSGTDFTLTISSLEPEDFAVYYCHQSSRLPFTFGPGTKVDIKRTVAAPSVFIFPPSDEQLKSGTASVVCLLNNFYPREAKVQWKVDNALQSGNSQESVTEQDSKDSTYSLESTLTLSKADYEKHKVYACEVTHQGLSSPVTKSFNRGEC heavy 1: QVQLVESGGGVVQPGRSLRLSCAASGFTFSRFAMHWVRQAPGKGLEWVAVISYDGGNKYYAESVKGRFTISRDNSKNTLYLQMNSLRAEDTALFYCARGYDVLTGYPDYWGQGTLVTVSSASTKGPSVFPLAPCSRSTSESTAALGCLVKDYFPEPVTVSWNSGALTSGVHTFPAVLQSSGLYSLKSVVTVPSSNFGTQTYTCNVDHKPSNTKVDKTVERKCCVECPPCPAPPVAGPSVFLFPPKPKDTLMISRTPEVTCVVVDVSHEDPEVQFNWYVDGVEVHNAKTKPREEQFNSTFRVVSVLTVVHQDWLNGKEYKCKVSNKGLPAPIEKTISKTKGQPREPQVYTLPPSREEMTKNQVSLTCLVDGFYPSDIAVEWESNGQPENNYDTTPPMLDSDGSFFLYSDLTVDKSRWQQGNVFSCSVMHEALHNHYTQKSLSLSPGK light 2: EIVLTQSPGTLSLSPGERATLSCRASQSVSSGYLTWYQQKPGQAPRLLIYGASSRATGIPDRFSGSGSGTDFTLTISRLEPEDFAVYYCQQYGNSLSRFGQGTKLEIKRTVAAPSVFIFPPSDEQLKSGTASVVCLLNNFYPREAKVQWKVDNALQSGNSQESVTEQDSKDSTYSLKSTLTLSKADYEKHKVYACEVTHQGLSSPVTKSFNRGEC heavy 2: QVQLVESGGGVVQPGRSLRLSCAASGFTFSSYGMHWVRQAPGKGLEWVAVIWYDGSNKYYADSVKGRFIISRDKSKNTLYLQMNSLRAEDTAVYYCARAGGIAAAGLYYYYGMDVWGQGTTVTVSSASTKGPSVFPLAPCSRSTSESTAALGCLVKDYFPEPVTVSWNSGALTSGVHTFPAVLQSSGLYSLESVVTVPSSNFGTQTYTCNVDHKPSNTKVDKTVERKCCVECPPCPAPPVAGPSVFLFPPKPKDTLMISRTPEVTCVVVDVSHEDPEVQFNWYVDGVEVHNAKTKPREEQFNSTFRVVSVLTVVHQDWLNGKEYKCKVSNKGLPAPIEKTISKTKGQPREPQVYTLPPSRKKMTKNQVSLTCLVKGFYPSDIAVEWESNGQPENNYKTTPPMLKSDGSFFLYSKLTVDKSRWQQGNVFSCSVMHEALHNHYTQKSLSLSPGK
5 | 67 | 29 | iPS:328045 (bispecific antibody, human IgG1, kappa, lambda, N297G) light 1: DIQMTQSPSSLSASVGDRITITCRASQSISRYLNWYQQKPGKAPKLLIYAASSLQSGIPSRFSGSGSGTDFTLTINSLQPEDFATYFCQQSYSPPFTFGQGTKVDIKRTVAAPSVFIFPPSDEQLKSGTASVVCLLNNFYPREAKVQWKVDNALQSGNSQESVTEQDSKDSTYSLESTLTLSKADYEKHKVYACEVTHQGLSSPVTKSFNRGEC heavy 1: not shown light 2: not shown heavy 2: not shown
6 | 71 | 25 | iPS:328037 (bispecific antibody, human IgG1, kappa, lambda, N297G) light 1: DIQMTQSPSSLSASVGDRITITCRASQSISRYLNWYQQKPGKAPKLLIYAASSLQSGIPSRFSGSGSGTDFTLTINSLQPEDFATYFCQQSYSPPFTFGQGTKVDIKRTVAAPSVFIFPPSDEQLKSGTASVVCLLNNFYPREAKVQWKVDNALQSGNSQESVTEQDSKDSTYSLESTLTLSKADYEKHKVYACEVTHQGLSSPVTKSFNRGEC heavy 1: not shown light 2: not shown heavy 2: not shown
7 | 85 | 20 | iPS:328042 (bispecific antibody, human IgG1, kappa, lambda, N297G) light 1: DIQMTQSPSSLSASVGDRITITCRASQSISRYLNWYQQKPGKAPKLLIYAASSLQSGIPSRFSGSGSGTDFTLTINSLQPEDFATYFCQQSYSPPFTFGQGTKVDIKRTVAAPSVFIFPPSDEQLKSGTASVVCLLNNFYPREAKVQWKVDNALQSGNSQESVTEQDSKDSTYSLESTLTLSKADYEKHKVYACEVTHQGLSSPVTKSFNRGEC heavy 1: not shown light 2: not shown heavy 2: not shown
8 | 74 | 70 | iPS:328040 (bispecific antibody, human IgG1, kappa, lambda, N297G) light 1: DIQMTQSPSSLSASVGDRITITCRASQSISRYLNWYQQKPGKAPKLLIYAASSLQSGIPSRFSGSGSGTDFTLTINSLQPEDFATYFCQQSYSPPFTFGQGTKVDIKRTVAAPSVFIFPPSDEQLKSGTASVVCLLNNFYPREAKVQWKVDNALQSGNSQESVTEQDSKDSTYSLESTLTLSKADYEKHKVYACEVTHQGLSSPVTKSFNRGEC heavy 1: not shown light 2: not shown heavy 2: not shown
9 | 79 | 21 | iPS:328036 (bispecific antibody, human IgG1, kappa, N297G) light 1: not shown heavy 1: not shown light 2: EIVLTQSPGTLSLSPGERATLSCRASQSVSSGYLTWYQQKPGQAPRLLIYGASSRATGIPDRFSGSGSGTDFTLTISRLEPEDFAVYYCQQYGNSLSRFGQGTKLEIKRTVAAPSVFIFPPSDEQLKSGTASVVCLLNNFYPREAKVQWKVDNALQSGNSQESVTEQDSKDSTYSLKSTLTLSKADYEKHKVYACEVTHQGLSSPVTKSFNRGEC heavy 2: not shown
